Columns and labels:
Assay type in all cases: cell-based
SLC7A11 = SLC7A11 levels in H522 LUAD cells; conditions: administration of GLRX to H522 LUAD cells
Procedure: Bio-Rad DC protein estimation kit was used to determine protein concentration in cell lysates. Equal amounts of proteins were resolved using sodium dodecyl sulfate (SDS)-polyacrylamide gel electrophoresis and transferred to polyvinylidene difluoride (PVDF) membranes, blocked in 5% BSA and incubated with primary antibodies overnight. Membranes were subsequently incubated with peroxidase-conjugated secondary antibodies for one hour and then visualized using chemiluminescence.

H522 LUAD cells = assay: GSH levels in H522 LUAD cells; conditions: administration of GLRX to H522 LUAD cells
Procedure: Cell lysates were prepared in 100 mM potassium phosphate buffer containing 0.6% sulfosalicylic acid, 1 mM ethylenediaminetetraacetic acid (EDTA) and 0.01% triton-x-100. To measure total glutathione (GSH), equal amounts of proteins were incubated with 3 micromolar 5,5′-dithio-bis (2-nitrobenzoic acid) (DTNB) reagent and 2.25 microgram/ml glutathione reductase followed by the addition of 240 micromolar Nicotinamide adenine dinucleotide phosphate (NADPH). Kinetic absorbance was measured every minute at 412 nm for 20 minutes. For protein S-glutathionylation (PSSG) measurement, 400 micrograms of protein was acetone precipitated and washed thoroughly to remove any free GSH. Pellets were reconstituted in 100 mM potassium phosphate buffer with 1 mM EDTA. Samples were then incubated with 1 mM sodium borohydride (NaBH4) or water (negative control) for 1 hour at room temperature. 10% metaphosphoric acid was added to all the samples, including controls, and left on ice for 10 minutes. Samples were centrifuged at 1000×g for 15 minutes and 20 microliters were loaded in a 96 well plate to measure PSSG using, 5′-dithio-bis-(2-nitrobenzoic acid) (DTNB) recycling enzyme method as stated above.

[1] = system: mouse tracheal epithelial (MTE) cells; assay: Total GSH measurement (DTNB assay) in MTE cells; conditions: direct administration of recombinant protein to MTE cells
Procedure: It has been previously shown that the pleotropic cytokine IL1B augments glycolysis in lung epithelial cells, and that interleukin 1B (IL1B) is linked to oxidative stress. The pentose phosphate pathway, an offshoot of glycolysis, regulates the redox environment by providing nicotinamide adenine dinucleotide phosphate (NADPH) reducing equivalents necessary for glutathione (GSH) homeostasis. The effects of GSH in response to IL1B were examined. Briefly, GSH was measured using a 5,5′-dithio-bis (2-nitrobenzoic acid) (DTNB) assay in both control and IL1B-stimulated mouse tracheal epithelial cells. […] Statistics on the left panel represent the total GSH levels, without differentiating between labeled and unlabeled portions of GSH (P-value*<0.05, ****<0.0001).
(§1) A regulator of GSH homeostasis is the transporter system xC-, which exports glutamate and concomitantly imports cystine in a 1:1 ratio. Once inside the cells, cystine is reduced to two cysteines, the latter being the rate limiting amino acid required for GSH synthesis. These relationships were examined further. […] To address whether IL1B-induced increases in GSH are system xC- dependent, two system xC- inhibitors, erastin (Er) and sulfasalazine (SAS) were used. Cells were pretreated for one hour, followed by IL1B treatment for 24 hours. Then, GSH levels were measured in cells exposed to increasing doses of Er or SAS (FIG. 2G). Extracellular glutamate levels in cell culture supernatant of cells pretreated with 0.5 micromolar Er (left) or 100 micromolar SAS (right) for 1 hour before IL1B stimulation were also measured (FIG. 2H). […] System xC- inhibition is known to induce ferroptosis, an iron-dependent mode of cell death characterized by increased lipid peroxidation. However, no changes in cell viability using erastin (5 micromolar) or sulfasalazine (500 micromolar) were detected (FIG. 2I; P-value*<0.05, ***<0.001, ****<0.0001).
(§2) Primary mouse tracheal epithelial (MTE) cells were isolated from C57BL/6NJ wild-type or C57BL6/NJ mice lacking Glrx1 gene and cultured. Cells were grown on collagen coated plastic plates or transwell inserts with media change every 2 days until confluency. For interleukin 1B (IL1B) treatment: cells were incubated in plain Dulbecco's Modified Eagle Medium (DMEM): F12 media containing 6 mM glucose and 2 mM glutamine overnight followed by stimulation with 10 ng/ml IL1B or 0.1% bovine serum albumin (BSA) in phosphate buffered saline (PBS) (vehicle control) for 24 hours. Treatment with crastin, sulfasalazine or BSO occurred 1 hour before IL1B stimulation. Media and cells were collected for further analysis. For growing H522 and OTUB1-CRISPR-H522 cells: Roswell Park Memorial Institute (RPMI) media supplemented with 10% fetal bovine serum (FBS) and 1% pen/strep was used to grow the cells. Plasmid over-expression and OTUB1 knock-down experiments were done when cells were 60-70% confluent.
Cell lysates were prepared in 100 mM potassium phosphate buffer containing 0.6% sulfosalicylic acid, 1 mM ethylenediaminetetraacetic acid (EDTA) and 0.01% triton-x-100. To measure total glutathione (GSH), equal amounts of proteins were incubated with 3 micromolar 5,5′-dithio-bis (2-nitrobenzoic acid) (DTNB) reagent and 2.25 microgram/ml glutathione reductase followed by the addition of 240 micromolar Nicotinamide adenine dinucleotide phosphate (NADPH). Kinetic absorbance was measured every minute at 412 nm for 20 minutes. […]

[2] = system: mouse tracheal epithelial (MTE) cells; assay: Extracellular glutamate in cell culture supernatant of MTE cells; conditions: direct administration of recombinant protein to MTE cells
From the text: as §1, §2
Glutamate in media was measured using Biovision kit following manufacturer's protocol.

B1: GLRX: recombinant wild-type glutaredoxin protein, deglutathionylating enzyme, administered directly to cells (protein, UniProt P35754 2-106, looked up)
Glutaredoxin-1: AQEFVNCKIQPGKVVVFIKPTCPYCRRAQEILSQLPIKQGLLEFVDITATNHTNEIQDYLQQLTGARTVPRVFIGKDCIGGCSDLVSLQQSGELLTRLKQIGALQ
decreased: SLC7A11 levels (SLC7A11) | GSH levels (H522 LUAD cells) | GSH levels [1] | extracellular glutamate [2]

Reference: US20260027190A1, “OVARIAN TUMOR DEUBIQUITINASE OXIDATION AND USES THEREOF” (The University of Vermont and State Agricultural College, priority 2022, published 2026)
